Consider twelve molecules from patent publication US20180194862A1 (AbbVie / Abbott, published 2018).

For test [1], the target named is T1, mesothelin on cells (endogenous on SN12C, OVCAR3, SW1990); HEK293 cells expressing cell-surface human … (human, UniProt Q13421 296-598).
T1 construct: whole, on cells; also called cell-surface MSLN
Nature of the test: FACS, OVCAR3 (CA125+). The protocol: (§1) The binding of anti-mesothelin affinity matured variants was measured by FACS on the ovarian cancer cell line OVCAR3, the pancreatic cancer cell line SW1990, and the renal cancer cell line SN12C. Both OVCAR3 and SW1990 express CA125, but CA125 expression on SN12C cells was not detected.
(In general: A flow cytometer gives signals particle by particle.)

The target in another test is T2, cynomolgus mesothelin (cynomolgus).
T2 construct: also called cynoMSLN; Cyno MSLN
Nature of the test: SPR. A general note: In SPR one partner is held on a chip, and binding of the other changes the refractive index at the surface.

A further test addresses T3, human mesothelin (human, UniProt Q13421 296-580, limits assumed).
T3 construct: also called Human MSLN
Nature of the test: SPR.

For test [2], the target named is T1, mesothelin on cells (endogenous on …). Put plainly: FACS, SN12C (CA125-). How it is done:
as §1

Test [3] addresses T4, human CD40 on cells (HEK293 stable transfectants, HEK-Blue CD40 cells, human B cells, monocytic cells, … (human, UniProt P25942 21-277)). Put plainly: cell-based or functional assay.
The target in another test is T5, dog CD40 (dog, UniProt Q7YRL5 21-194, limits assumed).
T5 sequence (looked up): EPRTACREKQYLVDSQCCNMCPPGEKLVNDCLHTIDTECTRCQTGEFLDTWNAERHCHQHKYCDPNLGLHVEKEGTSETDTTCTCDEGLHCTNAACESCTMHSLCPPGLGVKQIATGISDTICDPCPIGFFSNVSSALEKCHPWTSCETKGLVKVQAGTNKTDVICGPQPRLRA
Nature of the test: FACS.

Another test concerns the target T6, mouse CD40 (mouse, UniProt P27512 20-193, limits assumed).
T6 construct: also called murine CD40
T6 sequence (looked up): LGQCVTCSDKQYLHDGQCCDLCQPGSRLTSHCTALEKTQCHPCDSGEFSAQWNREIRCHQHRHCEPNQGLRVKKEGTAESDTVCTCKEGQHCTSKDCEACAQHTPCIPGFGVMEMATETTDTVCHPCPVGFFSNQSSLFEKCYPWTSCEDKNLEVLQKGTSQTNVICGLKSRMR
Nature of the test: FACS.

The target in test [4] is T4, human CD40 on cells (HEK293 stable …). Put plainly: cell-based or functional assay. This is another data set of the same source.
Test [5] has as its target T7, soluble form of the extracellular domain of human CD40 (Creative BioMart) (human, UniProt P25942 21-193).
T7 construct: Bought
Nature of the test: SPR, Ab captured. How it is done:
CD40 binding kinetics was analyzed by surface plasmon resonance assay with a Biacore T200 instrument (Table 1-5). Briefly, a goat anti-mouse Fc antibody (Pierce) or goat anti-human Fc (Pierce) was immobilized on a CM5 sensor chip, followed by capture of the anti-CD40 antibodies on the test surface. Subsequently, the soluble form of the extracellular domain of human CD40 (Creative BioMart) or cynomolgus (cyno) CD40 (Creative BioMart) was injected, and the binding and dissociation were measured.

T7 sequence (P25942 21-193 limits assumed): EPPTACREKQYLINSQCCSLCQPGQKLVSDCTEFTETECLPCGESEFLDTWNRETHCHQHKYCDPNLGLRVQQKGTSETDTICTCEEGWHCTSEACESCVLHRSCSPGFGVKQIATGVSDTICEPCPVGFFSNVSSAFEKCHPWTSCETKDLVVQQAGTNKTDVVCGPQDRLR
T4 sequence (P25942 21-277 limits assumed): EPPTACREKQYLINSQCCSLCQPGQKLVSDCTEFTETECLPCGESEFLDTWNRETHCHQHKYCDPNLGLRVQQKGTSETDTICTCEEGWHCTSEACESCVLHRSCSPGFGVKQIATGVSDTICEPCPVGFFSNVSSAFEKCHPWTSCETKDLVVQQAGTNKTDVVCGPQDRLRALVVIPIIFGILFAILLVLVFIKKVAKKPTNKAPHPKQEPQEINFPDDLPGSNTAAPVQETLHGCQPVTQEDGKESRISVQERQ
T3 sequence (Q13421 other isoform, or with tags, fused parts or gaps limits assumed): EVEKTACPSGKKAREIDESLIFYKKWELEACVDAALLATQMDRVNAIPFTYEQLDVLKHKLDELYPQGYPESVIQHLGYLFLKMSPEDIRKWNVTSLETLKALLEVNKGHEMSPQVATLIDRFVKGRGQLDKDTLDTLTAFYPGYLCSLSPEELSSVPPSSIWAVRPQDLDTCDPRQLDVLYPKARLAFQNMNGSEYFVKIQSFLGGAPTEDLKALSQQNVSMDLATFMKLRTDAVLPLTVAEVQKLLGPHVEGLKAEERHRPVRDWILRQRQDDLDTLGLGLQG
T1 sequence (Q13421 other isoform, or with tags, fused parts or gaps limits assumed): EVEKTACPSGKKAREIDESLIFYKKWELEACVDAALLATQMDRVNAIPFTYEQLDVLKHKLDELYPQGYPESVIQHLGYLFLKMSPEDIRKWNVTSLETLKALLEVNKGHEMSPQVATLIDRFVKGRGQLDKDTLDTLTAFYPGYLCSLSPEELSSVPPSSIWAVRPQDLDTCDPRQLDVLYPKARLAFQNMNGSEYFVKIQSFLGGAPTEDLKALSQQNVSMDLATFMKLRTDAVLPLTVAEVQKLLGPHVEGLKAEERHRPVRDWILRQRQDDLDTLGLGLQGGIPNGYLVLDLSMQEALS

B1: HuAb17 (antibody, V domains shown)
VH: EVQLVQSGAEVKEPGASVKVSCKASGDTFNRYYVHWARQAPGQGLEWMGIINPSGVSTTYAQKFQGRVTMTRDTPTNTVYMELGSLRPEDTAVYFCAESRGSGYNYFAMDVWGQGTLVTVSS
VL: SYELTQPPSVSVSPGQTADITCSGDKLGDKYASWYQQKPGQSPVLVIYQDNRRPSGIPERFSGSNSGNTATLTISGTQAMDEADYYCQAWDSDTYVFGPGTKVTVL
notes: fully human antibody
Usually EC50 stands for the concentration at which the effect is half-maximal. A higher EC50 goes with lower potency in that assay. Broadly, the Kd is the concentration at which binding is half-saturated. A high value points to a looser complex. What is called koff is a measure of how fast the partners let go of each other. Lower therefore signals a long-lived complex. For orientation: kon means the second-order rate constant of association. A low value points to slow association. Take B1: in [1], a half-maximal response (EC50) required 2.9 µg/mL and the “Maximum binding (MFI)” value was 1640 MFI. In the test with cynomolgus mesothelin, this molecule came in with a Kd of 8.1 nM, a koff of 0.00013 s⁻¹ and a kon of 15000 M⁻¹ s⁻¹. In the test with human mesothelin, this molecule showed a Kd of 2.6 nM, a koff of 3.2e-05 s⁻¹ and a kon of 12000 M⁻¹ s⁻¹. Besides, in [2], the midpoint of the response, the EC50, lay at 2.74 µg/mL and the “Maximum binding (MFI)” value came out at 11000 MFI.

B2: HuAM11 (antibody, V domains shown)
VH: EVQLVQSGAEVKKPGASVKVSCKASGDTFKRYYMHWVRQAPGQGLEWMGIINPSGVSTTYAQKFQGRVTMTRDTSTSTVYMELSSLRSEDTAVYYCAEVRGSGFNYFGMDVWGQGTLVTVSS
VL: SYELTQPPSVSVSPGQTASITCSGDKLGDKYASWYQQKPGQSPVLVIYQDNRRPSGIPERFSGSNSGNTATLTISGTQAMDEADYYCQVWDSDTYVFGTGTKVTVL
notes: fully human antibody
As to B2, in test [1], the EC50 was 0.7 µg/mL and the “Maximum binding (MFI)” value was 3430 MFI. Further, in test [2], the EC50 was found to be 0.04 µg/mL and the “Maximum binding (MFI)” value is 7530 MFI.

B3: HuAM12 (antibody, V domains shown)
VH: EVQLVQSGAEVKKPGASVKVSCKASGDTFHRYYVHWVRQAPGQGLEWMGIINPSGVSTTYAQKFQGRVTMTRDTSTSTVYMELSSLRSEDTAVYYCAEVRGSGFNYFGMDVWGQGTLVTVSS
VL: SYELTQPPSVSVSPGQTASITCSGDKLGDKYASWYQQKPGQSPVLVIYQDNRRPSGIPERFSGSNSGNTATLTISGTQAMDEADYYCQAWDSDTYVFGTGTKVTVL
notes: fully human antibody
Regarding B3, in [1], the EC50 stood at 0.8 µg/mL and the “Maximum binding (MFI)” value is 3270 MFI. In addition, in test [2], the EC50 stood at 0.09 µg/mL and the “Maximum binding (MFI)” value was 9630 MFI.

B4: HuAM13 (antibody, V domains shown)
VH: EVQLVQSGAEVKKPGASVKVSCKASGDTFNRYYVQWVRQAPGQGLEWMGIINPSGVSTTYAQKFQGRVTMTRDTSTSTVYMELSSLRSEDTAVYYCAETRGSGFNYFGMDVWGQGTLVTVSS
VL: SYELTQPPSVSVSPGQTASITCSGDKLGDKYASWYQQKPGQSPVLVIYQDNRRPSGIPERFSGSNSGNTATLTISGTQAMDEADYYCQVWDSDTYVFGTGTKVTVL
notes: fully human antibody
Consider B4, for which, in test [1], a half-maximal effect (EC50) was put at 0.7 µg/mL and the “Maximum binding (MFI)” value worked out at 3670 MFI. Also, in test [2], the midpoint of the response, the EC50, lay at 0.09 µg/mL and the “Maximum binding (MFI)” value was 9870 MFI.

B5: HuAM14 (antibody, V domains shown)
VH: EVQLVQSGAEVKKPGASVKVSCKASGDTFKRYYMHWVRQAPGQGLEWMGIINPSGVSTTYAQKFQGRVTMTRDTSTSTVYMELSSLRSEDTAVYYCAEVRGSGFNYFGMDVWGQGTLVTVSS
VL: SYELTQPPSVSVSPGQTASITCSGDKLGDKYASWYQQKPGQSPVLVIYQDNRRPSGIPERFSGSNSGNTATLTISGTQAMDEADYYCQAWDSDTYVFGTGTKVTVL
notes: fully human antibody
As to B5, the EC50 in test [1] came out at 0.7 µg/mL; in [2], 0.09 µg/mL. Moreover, the figures for the “Maximum binding (MFI)” value in test [1] and in test [2] were 3370 MFI and 9800 MFI, respectively.

B6: HuAM16 (antibody, V domains shown)
VH: EVQLVQSGAEVKKPGASVKVSCKASGDTFNRYYVQWVRQAPGQGLEWMGIINPSGVSTTYAQKFQGRVTMTRDTSTSTVYMELSSLRSEDTAVYYCAETRGSGFNYFGMDVWGQGTLVTVSS
VL: SYELTQPPSVSVSPGQTASITCSGDKLGDKYASWYQQKPGQSPVLVIYQDNRRPSGIPERFSGSNSGNTATLTISGTQAMDEADYYCQAWDSDTYVFGTGTKVTVL
notes: fully human antibody
Take B6: in [1], the EC50 came to 0.6 µg/mL and the “Maximum binding (MFI)” value is 3610 MFI. Also, in the test with cynomolgus mesothelin, the Kd came out at 4.1 nM, the koff turned out to be 0.00019 s⁻¹ and the kon came to 47000 M⁻¹ s⁻¹. In the test with human mesothelin, this molecule gave a Kd of 0.46 nM, a koff of 2.4e-05 s⁻¹ and a kon of 52000 M⁻¹ s⁻¹. In [2], the EC50 came out at 0.08 µg/mL and the “Maximum binding (MFI)” value stood at 9540 MFI.

B7: HuAM5 (antibody, V domains shown)
VH: EVQLVQSGAEVKKPGASVKVSCKASGDTFNRYYVHWVRQAPGQGLEWMGIINPSGVSTTYAQKFQGRVTMTRDTSTSTVYMELSSLRSEDTAVYYCAEVRGSGYNYFAMDVWGQGTLVTVSS
VL: SYELTQPPSVSVSPGQTASITCSGDKLGDKYASWYQQKPGQSPVLVIYQDNRRPSGIPERFSGSNSGNTATLTISGTQAMDEADYYCQAWDSDTYVFGTGTKVTVL
notes: fully human antibody
As to B7, in [1], the EC50 was found to be 0.7 µg/mL and the “Maximum binding (MFI)” value was 3690 MFI. Besides, in the test with cynomolgus mesothelin, the Kd amounted to 4.9 nM, the koff turned out to be 0.0001 s⁻¹ and the kon worked out at 20000 M⁻¹ s⁻¹. In the test with human mesothelin, this molecule had a Kd of at most 0.46 nM, a koff of at most 1e-05 s⁻¹ and a kon of 23000 M⁻¹ s⁻¹. Moreover, in test [2], the response was half-maximal at 0.09 µg/mL (EC50) and the “Maximum binding (MFI)” value came to 10000 MFI.

B8: huAb6-2 (antibody, human IgG1, V domains shown)
VH: EVQLVQSGAEVKKPGSSVKVSCKASGYTFTSYWMHWVRQAPGQGLEWIGNIDPSNGETHYNQKFKDRVTITVDKSTSTAYMELSSLRSEDTAVYYCARERIYYSGSTYDGYFDVWGQGTTVTVSS
VL: DIQLTQSPSFLSASVGDRVTITCSASSSLSYMHWYQQKPGKSPKRWIYDTSKLASGVPSRFSGSGSGTEYTLTISSLQPEDFATYYCQQWSSNPWTFGGGTKVEIK
notes: human IgG1, kappa
With B8, in [3], the “Maximal activation (OD655)” value turned out to be 0.2 OD655 and the “NF-κB activation EC50, HEK293 CD40 NFκB reporter cells” value (“NF-κB activation EC50” for short) turned out to be 1.21 µg/mL. In the test with dog CD40, the binding result is “no binding”. For the same molecule, in the test with mouse CD40, the binding result is “no binding”.

B9: huAb6-3 (antibody, human IgG1, V domains shown)
VH: EVQLVQSGAEVKKPGSSVKVSCKASGYTFTSYWMHWVRQAPGQGLEWIGNIDPSNGETHYAQKFQGRVTITVDKSTSTAYMELSSLRSEDTAVYYCARERIYYSGSTYDGYFDVWGQGTTVTVSS
VL: DIQLTQSPSFLSASVGDRVTITCSASSSLSYMHWYQQKPGKSPKRWIYDTSKLASGVPSRFSGSGSGTEYTLTISSLQPEDFATYYCQQWSSNPWTFGGGTKVEIK
notes: human IgG1, kappa
On to B9, for which, in test [3], the “Maximal activation (OD655)” value came out at 0.32 OD655 and the “NF-κB activation EC50” value was 4.31 µg/mL. In the test with dog CD40, the binding result is listed as “no binding”. The binding result in the test with mouse CD40 is on record as “no binding”.

B10: huAb6-1 (antibody, human IgG1, V domains shown)
VH: EVQLVQSGAEVKKPGSSVKVSCKASGYTFTSYWMHWVRQAPGQGLEWIGNIDPSNGETHYNQKFKDRATLTVDKSTSTAYMELSSLRSEDTAVYYCARERIYYSGSTYDGYFDVWGQGTTVTVSS
VL: DIQLTQSPSFLSASVGDRVTITCSASSSLSYMHWYQQKPGKSPKRWIYDTSKLASGVPSRFSGSGSGTEYTLTISSLQPEDFATYYCQQWSSNPWTFGGGTKVEIK
notes: human IgG1 heavy chain constant region, kappa light chain constant region
Turning to B10, in [3], the “Maximal activation (OD655)” value came out at 0.26 OD655 and the “NF-κB activation EC50” value was found to be 1.09 µg/mL. The binding result with dog CD40 was “no binding”. Further, the binding result with mouse CD40 is “no binding”.

B11: huAb8-3 (antibody, human IgG1, V domains shown)
VH: EVQLVQSGAEVKKPGSSVKVSCKASGYTFTDYYINWVRQAPGQGLEWIGWIFPGSGSVYCNEQFKGRVTITVDKSTSTAYMELSSLRSEDTAVYYCASSLGKFAYWGQGTLVTVSS
VL: DIQMTQSPSSLSASVGDRVTITCKASQSVVTAVAWYQQKPGKSPKLLIYSASNRYTGVPSRFSGSGSGTDFTLTISSLQPEDFATYFCQQYSSYPYTFGGGTKVEIK
notes: human IgG1, kappa
B11: the “Maximal activation (OD655)” value in test [3] was 0.46 OD655. The “NF-κB activation EC50” value in [3] came to 0.07 µg/mL. Moreover, the binding result with dog CD40 and with mouse CD40 was “no binding” each time.

B12: AD163.10.7 (antibody, V domains shown)
VH: LVQPGGSLSLSCAASGFTFSDYYMSWVRQPPGKALEWLGFIRNKANGYTTEFSASVKGRFTISRDNSQSILYLQMNALRAEDSATYYCARYGGLRQGWYFDVWGTGTTVTVSS
VL: DIQMTQTTSSLSASLGDRVTISCRASQDIRNYLNWYQQKPDGTVKLLIYYTSRLHSGVPSRFSGSGSGTDYSLTISNLEQEDIATYFCQQGKTLPWTFGGGSKLEMK
notes: mouse hybridoma antibody; also called muAb4
B12: in test [4], the “Monocyte activation (THP1-Xblue, OD655)” value came out at 0.16 OD655 and the “moDC activation (IL-12p70)” value worked out at 1320 pg/mL. In test [5], this molecule displayed a Kd of 76 nM, a koff of 0.17 s⁻¹ and a kon of 2.3e+06 M⁻¹ s⁻¹.
